From US20240262923A1 (Sanofi, published 2024)

T1: cynomolgus monkey 4-1BB (SPR analyte) (cynomolgus monkey, UniProt A9YYE7 24-186)
T1 construct: also called cy4-1BB
T1 sequence: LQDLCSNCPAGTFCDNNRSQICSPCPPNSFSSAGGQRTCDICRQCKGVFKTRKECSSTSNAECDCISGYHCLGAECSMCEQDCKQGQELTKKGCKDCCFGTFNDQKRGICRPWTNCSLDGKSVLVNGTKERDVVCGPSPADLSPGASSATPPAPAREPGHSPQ

T2: human OX40 (human, UniProt P43489 29-216)
T2 construct: also called hOX40
T2 sequence (looked up): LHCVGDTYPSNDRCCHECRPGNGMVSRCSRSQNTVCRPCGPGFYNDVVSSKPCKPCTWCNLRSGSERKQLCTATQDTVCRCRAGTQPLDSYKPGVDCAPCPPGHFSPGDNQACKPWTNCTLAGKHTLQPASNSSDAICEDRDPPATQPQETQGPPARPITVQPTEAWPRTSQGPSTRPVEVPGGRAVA

B1: Optimized Construct #3 (bispecific antibody)
heavy: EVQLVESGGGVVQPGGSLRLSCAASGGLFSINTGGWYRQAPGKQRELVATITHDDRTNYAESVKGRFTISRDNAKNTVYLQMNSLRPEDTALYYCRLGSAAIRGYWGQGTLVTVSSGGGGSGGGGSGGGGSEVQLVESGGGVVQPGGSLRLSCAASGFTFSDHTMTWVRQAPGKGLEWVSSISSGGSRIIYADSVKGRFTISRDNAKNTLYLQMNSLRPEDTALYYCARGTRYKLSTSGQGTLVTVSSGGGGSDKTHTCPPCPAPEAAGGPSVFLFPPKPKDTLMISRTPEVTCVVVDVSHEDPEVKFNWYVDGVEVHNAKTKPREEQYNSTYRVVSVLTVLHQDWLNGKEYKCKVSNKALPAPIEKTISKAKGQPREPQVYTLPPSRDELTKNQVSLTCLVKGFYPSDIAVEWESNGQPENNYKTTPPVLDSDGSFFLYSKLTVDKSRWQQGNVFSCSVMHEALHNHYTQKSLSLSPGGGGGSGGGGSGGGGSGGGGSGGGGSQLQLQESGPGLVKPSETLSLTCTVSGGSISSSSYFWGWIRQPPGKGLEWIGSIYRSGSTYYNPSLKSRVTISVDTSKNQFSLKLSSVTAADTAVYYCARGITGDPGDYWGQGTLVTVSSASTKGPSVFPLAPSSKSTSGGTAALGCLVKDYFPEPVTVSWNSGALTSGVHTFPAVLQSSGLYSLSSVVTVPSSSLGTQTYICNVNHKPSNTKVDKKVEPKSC
light: EIVLTQSPATLSLSPGERATLSCGASQSVPINFLAWYQQKPGLAPRLLIYEASSRHTGIPDRFSGSGSGTDFTLTISRLEPEDFAVYYCGQYGSSPYTFGQGTKLEIKRTVAAPSVFIFPPSDEQLKSGTASVVCLLNNFYPREAKVQWKVDNALQSGNSQESVTEQDSKDSTYSLSSTLTLSKADYEKHKVYACEVTHQGLSSPVTKSFNRGEC
notes: also called Optimized Construct #3 (unmasked); naked
B2: MC3 (conditionally-active, masked Optimized Construct #3; MM1 and cleavable linker #2) (bispecific antibody)
heavy: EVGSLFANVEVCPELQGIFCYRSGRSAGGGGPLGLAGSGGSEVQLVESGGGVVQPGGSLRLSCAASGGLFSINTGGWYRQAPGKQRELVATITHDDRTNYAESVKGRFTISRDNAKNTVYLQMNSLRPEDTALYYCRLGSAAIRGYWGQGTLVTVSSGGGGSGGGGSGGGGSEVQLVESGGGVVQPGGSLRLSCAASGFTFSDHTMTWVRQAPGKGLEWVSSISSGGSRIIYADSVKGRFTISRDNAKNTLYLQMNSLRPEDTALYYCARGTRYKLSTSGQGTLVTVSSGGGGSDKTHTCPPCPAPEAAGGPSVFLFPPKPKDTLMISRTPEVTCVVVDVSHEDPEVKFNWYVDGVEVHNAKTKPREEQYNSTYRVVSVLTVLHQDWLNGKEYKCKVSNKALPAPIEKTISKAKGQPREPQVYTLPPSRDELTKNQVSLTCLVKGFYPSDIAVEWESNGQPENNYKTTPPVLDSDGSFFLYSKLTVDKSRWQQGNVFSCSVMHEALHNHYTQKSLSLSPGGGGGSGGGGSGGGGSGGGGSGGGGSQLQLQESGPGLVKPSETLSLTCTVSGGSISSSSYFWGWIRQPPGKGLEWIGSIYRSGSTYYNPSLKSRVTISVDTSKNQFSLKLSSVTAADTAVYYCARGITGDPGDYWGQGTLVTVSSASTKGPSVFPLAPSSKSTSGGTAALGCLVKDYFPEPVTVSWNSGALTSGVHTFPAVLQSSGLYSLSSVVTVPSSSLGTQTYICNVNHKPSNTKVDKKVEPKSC
light: B1 light
B3: MC1 (conditionally-active, masked Optimized Construct #3; MM1 and cleavable linker #1) (bispecific antibody)
heavy: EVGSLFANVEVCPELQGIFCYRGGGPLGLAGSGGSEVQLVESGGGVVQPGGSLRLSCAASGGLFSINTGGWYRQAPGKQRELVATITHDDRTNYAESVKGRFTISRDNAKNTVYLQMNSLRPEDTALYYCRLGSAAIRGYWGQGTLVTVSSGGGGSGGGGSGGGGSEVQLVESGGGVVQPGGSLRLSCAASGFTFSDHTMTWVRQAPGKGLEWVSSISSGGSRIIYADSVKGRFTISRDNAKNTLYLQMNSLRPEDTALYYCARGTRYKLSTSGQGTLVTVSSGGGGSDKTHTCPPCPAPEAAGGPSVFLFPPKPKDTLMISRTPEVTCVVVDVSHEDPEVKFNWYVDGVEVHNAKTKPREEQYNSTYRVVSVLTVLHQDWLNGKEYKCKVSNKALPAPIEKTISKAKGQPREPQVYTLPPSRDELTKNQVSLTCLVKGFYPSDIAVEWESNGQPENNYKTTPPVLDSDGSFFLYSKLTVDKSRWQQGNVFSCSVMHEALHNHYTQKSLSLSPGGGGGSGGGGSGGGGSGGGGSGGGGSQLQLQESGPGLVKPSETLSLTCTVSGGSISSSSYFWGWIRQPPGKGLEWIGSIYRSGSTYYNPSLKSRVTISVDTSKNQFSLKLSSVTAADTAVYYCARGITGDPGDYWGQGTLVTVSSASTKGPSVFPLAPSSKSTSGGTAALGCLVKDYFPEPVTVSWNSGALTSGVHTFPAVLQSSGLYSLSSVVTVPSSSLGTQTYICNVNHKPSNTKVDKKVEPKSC
light: B1 light
B4: MC2 (conditionally-active, masked Optimized Construct #3; MM2 and cleavable linker #1) (bispecific antibody)
heavy: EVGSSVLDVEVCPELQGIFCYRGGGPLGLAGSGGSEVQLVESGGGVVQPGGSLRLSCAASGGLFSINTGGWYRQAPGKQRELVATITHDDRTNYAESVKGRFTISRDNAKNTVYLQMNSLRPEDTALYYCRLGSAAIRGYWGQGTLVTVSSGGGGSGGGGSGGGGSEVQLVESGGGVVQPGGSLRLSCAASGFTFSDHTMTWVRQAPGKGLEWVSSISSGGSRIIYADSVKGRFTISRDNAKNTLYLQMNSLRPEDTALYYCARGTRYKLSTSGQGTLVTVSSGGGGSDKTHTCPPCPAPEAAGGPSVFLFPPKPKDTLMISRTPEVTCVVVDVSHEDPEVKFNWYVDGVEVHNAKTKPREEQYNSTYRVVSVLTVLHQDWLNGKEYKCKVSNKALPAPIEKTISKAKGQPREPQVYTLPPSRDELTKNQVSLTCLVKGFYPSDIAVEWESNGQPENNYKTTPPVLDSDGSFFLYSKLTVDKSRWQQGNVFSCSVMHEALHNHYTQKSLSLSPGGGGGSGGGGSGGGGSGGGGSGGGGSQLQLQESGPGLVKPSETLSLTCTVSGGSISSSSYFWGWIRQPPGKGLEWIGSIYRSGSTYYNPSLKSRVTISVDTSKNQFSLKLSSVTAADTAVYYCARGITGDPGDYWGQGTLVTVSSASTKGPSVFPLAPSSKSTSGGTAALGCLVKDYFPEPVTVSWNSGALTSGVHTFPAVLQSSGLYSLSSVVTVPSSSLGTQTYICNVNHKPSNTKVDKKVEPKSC
light: B1 light
B5: MC4 (conditionally-active, masked Optimized Construct #3; MM2 and cleavable linker #2) (bispecific antibody)
heavy: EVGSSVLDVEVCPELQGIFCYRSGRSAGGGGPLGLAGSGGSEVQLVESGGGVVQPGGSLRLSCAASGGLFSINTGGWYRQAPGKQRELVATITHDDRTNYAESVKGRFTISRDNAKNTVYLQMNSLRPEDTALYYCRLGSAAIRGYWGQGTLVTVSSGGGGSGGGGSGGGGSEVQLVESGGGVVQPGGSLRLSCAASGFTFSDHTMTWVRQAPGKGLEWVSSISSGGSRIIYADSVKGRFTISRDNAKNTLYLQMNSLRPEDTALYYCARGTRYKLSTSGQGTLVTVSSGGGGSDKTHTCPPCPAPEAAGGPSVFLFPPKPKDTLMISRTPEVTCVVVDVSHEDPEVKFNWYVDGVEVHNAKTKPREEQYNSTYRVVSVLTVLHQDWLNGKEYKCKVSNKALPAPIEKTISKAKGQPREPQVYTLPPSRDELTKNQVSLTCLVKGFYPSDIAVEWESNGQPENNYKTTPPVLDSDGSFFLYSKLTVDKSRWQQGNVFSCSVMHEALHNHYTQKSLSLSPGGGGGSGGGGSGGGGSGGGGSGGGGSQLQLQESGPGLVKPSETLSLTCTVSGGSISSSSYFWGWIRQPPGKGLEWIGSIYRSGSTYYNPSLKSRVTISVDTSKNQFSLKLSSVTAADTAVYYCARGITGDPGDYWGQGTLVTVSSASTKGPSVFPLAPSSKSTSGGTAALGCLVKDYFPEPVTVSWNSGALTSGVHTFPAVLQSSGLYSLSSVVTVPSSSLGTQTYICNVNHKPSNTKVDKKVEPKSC
light: B1 light
B6: anti-4-1BB VHH Clone #2, bivalent monoparatopic Fab-like construct (other)
chain 1: QVQLQESGGGLVQPGGSLRLSCAASGGLFSINTGGWYRQAPGKQRELVATITHDDRTNYAESVKGRFTLSRDNAKNTVYLQMNSLKPEDTAVYYCRLGSAAIRGYWGQGTQVTVSS
chain 2: B6 chain 1
notes: not shown: human CL (lambda) constant domain, tag if any; human IgG1 CH1 domain, HA and 6-His tags
B7: anti-4-1BB clone #5c VHH, bivalent monoparatopic Fab-like construct (other)
chain 1: QVQLQESGGGLVQAGGSLRLSCAASGDTFSSYAMGWFRQAPGERLEWVASINPSGGSQSYHPSVKDRFTISRDNGKNILFLQLDKLNPEDTAVYVCARGTRYKIFASGQGTQVTVSS
chain 2: B7 chain 1
notes: as for B6
B8: anti-4-1BB clone #5 VHH (VHH)
VHH: QVQLQESGGGLVQPGGSLRLSCAASGFTFSDHTMTWVRQAPGKGLEWVSSISSGGSRIIYADSVKGRFTISRDNAKNTLYLQMNNLRPEDTAVYFCARGTRYKMSTSGPGTQVTVSS
B9: anti-4-1BB clone #2 VHH (VHH)
VHH: B6 chain 1
B10: anti-4-1BB VHH Clone #5, bivalent monoparatopic Fab-like construct (other)
chain 1: B8 VHH
chain 2: B8 VHH
notes: as for B6
B11: anti-4-1BB clone #5d VHH, bivalent monoparatopic Fab-like construct (other)
chain 1: QVQLQESGGGLVQPGGSLRLSCVASGFTFANYRMSWVRQAPGKGLEWVSSIKKSGNRTTYSDSVKGRFTISRDNAKNTMFLQMDNLTPEDTAVYFCARGTRYKMSTSGPGTQVTVSS
chain 2: B11 chain 1
notes: as for B6
B12: anti-4-1BB clone #5a VHH, bivalent monoparatopic Fab-like construct (other)
chain 1: QVQLQESGGGWVQPGGSLRLSCAASGFAFRDFTMSWARQAPGERFEWISSINPSGGSQSYLPSVKGRFTISRDNAKNTMFLQMDNLTPEDTAVYFCARGTRYKMSTSGPGTQVTVSS
chain 2: B12 chain 1
notes: as for B6

What follows are binders tested against T3, human PD-1 expressed on cells (300.19 pre-B cells, PD-1 NFAT-luc2 Jurkat cells, primary T-cells) (human, UniProt Q15116 25-288) (assay: flow cytometry on PD-1+ Jurkat T-cells).
T3 construct: GenBank NP 005009.2 printed; also called hPD-1; Pre-B hPD-1
T3 sequence (Q15116 25-288 limits assumed): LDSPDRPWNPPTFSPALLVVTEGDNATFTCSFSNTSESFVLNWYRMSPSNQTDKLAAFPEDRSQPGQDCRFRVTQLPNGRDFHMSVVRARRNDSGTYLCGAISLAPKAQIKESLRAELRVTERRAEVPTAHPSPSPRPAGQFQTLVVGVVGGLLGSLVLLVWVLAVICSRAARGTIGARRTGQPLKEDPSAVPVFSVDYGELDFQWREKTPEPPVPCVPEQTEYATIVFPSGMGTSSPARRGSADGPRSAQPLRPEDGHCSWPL

Row | EC50 [nM] | Binder
1 | 0.5 | B1
2 | 0.89 | B2
3 | 0.7 | B3
4 | 0.78 | B4
5 | 0.72 | B5

The binders below were run against T4, human His-tagged 4-1BB recombinant protein (human, UniProt Q07011 24-186) (assay: binding assay (FIG. 2), bivalent monoparatopic Fab-like).
T4 construct: also called human 4-1BB; h4-1BB; not shown: His tag

Row | binding result | Binder
6 | binds | B6

What follows are binders tested against T5, cynomolgus monkey 4-1BB expressed on 300.19 pre-B cells (cynomolgus monkey, UniProt A9YYE7 24-254) (assay: flow cytometry on 300.19 pre-B cells, cy4-1BB against h4-1BB).
T5 construct: whole, on cells; also called cy4-1BB; Pre-B cy4-1BB

Row | Ratio EC50 cy/h [fold] | Binder
7 | 0.3 | B1
8 | 0.23 | B2
9 | 0.07 | B3
10 | 2.44 | B4
11 | 1.01 | B5

Each binder was assayed against T6, human PD-1 (SPR analyte) (human, UniProt Q15116 25-167, limits assumed) (assay: SPR (Biacore 8K), binder captured on anti-Fc chip, target as analyte, 1:1 model).
T6 construct: Soluble analyte in SPR; also called hPD-1
T6 sequence (Q15116 25-167 limits assumed): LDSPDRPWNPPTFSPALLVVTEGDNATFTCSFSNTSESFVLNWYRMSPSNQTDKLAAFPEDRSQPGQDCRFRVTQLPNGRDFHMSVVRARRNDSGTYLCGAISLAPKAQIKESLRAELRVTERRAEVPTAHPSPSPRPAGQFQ

Row | Kd [nM] | Binder
12 | 4.54 | B1

Each binder was assayed against T7, cynomolgus monkey PD-1 (SPR analyte) (cynomolgus monkey, UniProt B0LAJ3 25-170) in the same assay as above.
T7 construct: also called cyPD-1
T7 sequence (B0LAJ3 entry or part of it limits assumed): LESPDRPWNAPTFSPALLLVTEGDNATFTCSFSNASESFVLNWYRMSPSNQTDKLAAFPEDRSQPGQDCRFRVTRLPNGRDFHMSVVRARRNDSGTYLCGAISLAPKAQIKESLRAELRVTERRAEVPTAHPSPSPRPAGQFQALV

Row | Kd [nM] | Binder
13 | 14.9 | B1
14 | 13.4 | B2
15 | 14.9 | B3
16 | 17.3 | B4
17 | 18.3 | B5

Molecular target: T6, human PD-1 (SPR analyte)
Experiment: as above
Remark: another data set of the same source

Row | Kd [nM] | Binder
18 | 7.29 | B1
19 | 6.73 | B2
20 | 6.42 | B3
21 | 7.73 | B4
22 | 6.82 | B5

Each binder was assayed against T5, cynomolgus monkey 4-1BB expressed on … (assay: flow cytometry on 300.19 pre-B cells, cy4-1BB, against Optimized Construct #3).

Row | masking efficacy (masked EC50/naked EC50) [fold] | Binder
23 | 6 | B2
24 | 7 | B3
25 | 18 | B4
26 | 11 | B5

Each binder was assayed against T1, cynomolgus monkey 4-1BB (SPR analyte) (assay: SPR, KD on cy4-1BB against KD on h4-1BB).

Row | Ratio KD cyno/human [fold] | Binder
27 | 1.9 | B1

The binders below were run against T5, cynomolgus monkey 4-1BB expressed on … (assay: flow cytometry on 300.19 pre-B cells, cy4-1BB).

Row | masking efficacy (masked EC50/naked EC50) [fold] | Binder
28 | 1 | B1

What follows are binders tested against T1, cynomolgus monkey 4-1BB (SPR analyte) (assay: SPR (Biacore 8K), binder captured on anti-Fc chip, target as analyte, 1:1 model).

Row | Kd [nM] | Binder
29 | 21.1 | B1

These binders were tested against T8, cynomolgus monkey PD-1 expressed on 300.19 pre-B cells (cynomolgus monkey, UniProt B0LAJ3 25-288) (assay: flow cytometry on 300.19 pre-B cells, cyPD-1 against hPD-1).
T8 construct: also called cyPD-1; Pre-B cyPD-1
T8 sequence (B0LAJ3 entry or part of it limits assumed): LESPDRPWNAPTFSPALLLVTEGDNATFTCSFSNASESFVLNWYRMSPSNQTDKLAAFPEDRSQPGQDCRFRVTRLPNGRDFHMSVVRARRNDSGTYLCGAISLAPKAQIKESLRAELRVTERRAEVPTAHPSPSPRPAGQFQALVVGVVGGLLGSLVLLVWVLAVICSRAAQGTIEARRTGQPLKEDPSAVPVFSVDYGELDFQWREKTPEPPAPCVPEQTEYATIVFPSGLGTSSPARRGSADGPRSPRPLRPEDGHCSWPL

Row | Ratio EC50 cy/h [fold] | Binder
30 | 1.04 | B1
31 | 0.8 | B2
32 | 0.99 | B3
33 | 0.51 | B4
34 | 1.79 | B5

These binders were tested against T4, human His-tagged 4-1BB recombinant … (assay: ELISA (FIG. 7A), bivalent monoparatopic Fab-like).

Row | binding result | Binder
35 | binds | B7

The binders below were run against T3, human PD-1 expressed on cells (300.19 …) (assay: cell-based or functional assay).

Row | EC50 value (nM), PD-1 reporter assay [nM] | Binder
36 | 1.39 | B1
37 | 2.62 | B2
38 | 2.43 | B3
39 | 2.54 | B4
40 | 2.81 | B5

What follows are binders tested against T5, cynomolgus monkey 4-1BB expressed on … (assay: flow cytometry on 300.19 pre-B cells).

Row | EC50 [nM] | Binder
41 | 0.91 | B1
42 | 5.9 | B2
43 | 6.24 | B3
44 | 16.6 | B4
45 | 9.81 | B5

The binders below were run against T9, extracellular domain of human 4-1BB (amino acid residues 24-186 of SEQ ID NO: 13) (human, UniProt Q07011 24-186) (assay: X-ray crystallography of the complex).
T9 construct: Used for X-ray crystallography

Row | binding result | Binder
46 | binds | B8
47 | binds | B9

Each binder was assayed against T8, cynomolgus monkey PD-1 expressed on … (assay: flow cytometry on 300.19 pre-B cells).

Row | EC50 [nM] | Binder
48 | 1.45 | B1
49 | 1.4 | B2
50 | 1.67 | B3
51 | 1.5 | B4
52 | 4.8 | B5

The binders below were run against T3, human PD-1 expressed on cells (300.19 …) (assay: flow cytometry on 300.19 pre-B cells).

Row | EC50 [nM] | Binder
53 | 1.4 | B1
54 | 1.76 | B2
55 | 1.65 | B3
56 | 2.97 | B4
57 | 2.68 | B5

These binders were tested against T7, cynomolgus monkey PD-1 (SPR analyte) (assay: SPR, KD on cyPD-1 against KD on hPD-1).

Row | Ratio KD cyno/human [fold] | Binder
58 | 2 | B1
59 | 2 | B2
60 | 2.3 | B3
61 | 2.2 | B4
62 | 2.7 | B5

The binders below were run against T2, human OX40 (assay: binding assay (FIG. 2), bivalent Fab-like).

Row | binding result | Binder
63 | no binding | B10
64 | no binding | B6

Each binder was assayed against human CD40 (human, UniProt P25942 21-193) (assay: binding assay (FIG. 2), bivalent Fab-like).
human CD40, sequence (P25942 21-193 limits assumed): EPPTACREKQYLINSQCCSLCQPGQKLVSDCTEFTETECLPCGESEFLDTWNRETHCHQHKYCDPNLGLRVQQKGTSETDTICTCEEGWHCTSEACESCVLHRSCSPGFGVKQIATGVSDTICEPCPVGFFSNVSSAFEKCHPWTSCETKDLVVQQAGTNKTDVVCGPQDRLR

Row | binding result | Binder
65 | no binding | B10
66 | no binding | B6

These binders were tested against T4, human His-tagged 4-1BB recombinant … (assay: ELISA binding on 4-1BB-his, bivalent monoparatopic Fab-like constructs).

Row | EC50 (read off the curve) [nM] | binding result | Binder
67 | ~3 | – | B10
68 | – | binds | B11
69 | ~0.5 | – | B12
